Numbering of substitutions follows the chain as printed. Where no end group is shown, it is not given here. Side-chain parts run from the residue outwards. [ ]: non-standard residue; d: D form. SMPH = maleimide crosslinker coupling C-terminal Cys to BSA; pGlu = O=C1CC[C@@H](C(=O)O)N1
Assays:
[1] = biological target: T1, PepSpot peptide No. 5 EFRHDSGYEVHHQ; assay: PepSpot peptide membrane
T1 construct: Spotted on a PepSpot membrane; also called spot number 5
T1 peptide: EFRHDSGYEVHHQ

[2] = biological target: T2, PepSpot peptide No. 6 pEFRHDSGYEVHHQ; assay: PepSpot peptide membrane
T2 construct: Spotted on a PepSpot membrane; also called spot number 6; the specific Aβ N3pE-x spot
T2 peptide: [pGlu]FRHDSGYEVHHQ

[3] = biological target: T3, PepSpot peptide No. 7 FRHDSGYEVHHQK; assay: PepSpot peptide membrane
T3 construct: Spotted on a PepSpot membrane; also called spot number 7
T3 peptide: FRHDSGYEVHHQK

[4] = biological target: T4, BSA-pGlu-6166 peptide (pGlu-FRHDSGC conjugated to bovine serum albumin); assay: IgG ELISA, hybridoma supernatant on peptide-BSA coat
T4 construct: also called N3pE-BSA
T4 peptide: [pGlu]FRHDSGC([SMPH-BSA])

isoDAE-BSA = assay: as above
N3E-BSA = assay: as above
N11E-BSA = assay: as above
N11pE-BSA = assay: as above
Aβ N3pE-40 peptide [5] = biological target: T5, Aβ N3pE-40 peptide (N-terminal Glu (position 3 of Aβ) cyclized to pyroglutamate); assay: SPR (Biacore, CM5 chip with coupled Aβ N3pE-40), overlay of hybridoma supernatants. The sheet carries the label Figure 6, but its content is that of the legend of FIG. 5
T5 construct: Synthetic peptide; also called AβpE3-40; amyloid β N3pE-40

Aβ N3pE-40 peptide [6] = biological target: T5, Aβ N3pE-40 peptide; assay: DotBlot
Aβ N3pE-40 peptide [7] = biological target: T5, Aβ N3pE-40 peptide; assay: Biacore, peptide on CM5 chip, hybridoma supernatants
MCP-1 = MCP-1 (human, UniProt P13500 24-99, limits assumed, N-terminal pyroglutamate (pGlu peptide)); assay: SPR (Biacore 3000), peptide on CM5 chip, antibody 25 µg/ml
MCP-2 = biological target: T6, MCP-2 (human, UniProt P80075 24-99, limits assumed, N-terminal pyroglutamate (pGlu peptide)); assay: as above
T6 construct: Whole peptide or N-terminal region
T6 sequence (peptide, looked up): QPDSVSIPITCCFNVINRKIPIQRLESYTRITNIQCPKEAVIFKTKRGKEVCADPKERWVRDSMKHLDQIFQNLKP

Big Gastrin = biological target: T7, Big Gastrin (human, UniProt P01350 59-92, limits assumed, N-terminal pyroglutamate (pGlu peptide)); assay: as above
T7 construct: Whole peptide or N-terminal region
T7 peptide (looked up): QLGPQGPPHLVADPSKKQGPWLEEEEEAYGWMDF

Gonadoliberin = biological target: T8, Gonadoliberin (human, UniProt P01148 24-33, N-terminal pyroglutamate (pGlu peptide)); assay: as above
T8 construct: Whole peptide or N-terminal region
T8 peptide (looked up): QHWSYGLRPG

Neurotensin = biological target: T9, Neurotensin (human, UniProt P30990 151-163, N-terminal pyroglutamate (pGlu peptide)); assay: as above
T9 construct: Whole peptide or N-terminal region

Orexin A = biological target: T10, Orexin A (human, UniProt O43612 34-66, limits assumed, N-terminal pyroglutamate (pGlu peptide)); assay: as above
T10 construct: Whole peptide or N-terminal region
T10 peptide (looked up): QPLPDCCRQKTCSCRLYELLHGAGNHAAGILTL

Collagen 1 = biological target: T11, Collagen 1 (human); assay: as above
T11 construct: Whole protein or N-terminal region, and which collagen chain

Aβ N3pE-40 peptide [8] = biological target: T5, Aβ N3pE-40 peptide; assay: N3pE sandwich ELISA (4G8 capture, 6-1-6 detection), 3.125 pg/ml peptide
Aβ 4-40 [9] = biological target: T12, Aβ 4-40; assay: N3pE sandwich ELISA (4G8 capture, 6-1-6 detection), peptide at 25 pg/ml
T12 construct: No entry of its own

Aβ 1-42 [10] = assay: as above
Aβ pE11-40 [11] = biological target: T13, Aβ pE11-40 (N-terminal Glu (position 11 of Aβ) cyclized to pyroglutamate); assay: as above
T13 construct: No entry of its own
T13 peptide: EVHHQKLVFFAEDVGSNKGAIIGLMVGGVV

Aβ 4-40 [12] = biological target: T12, Aβ 4-40; assay: N3pE sandwich ELISA (4G8 capture, 6-1-6 detection), peptide at 50 pg/ml
Aβ 1-42 [13] = assay: as above
Aβ pE11-40 [14] = biological target: T13, Aβ pE11-40; assay: as above
Aβ 4-40 [15] = biological target: T12, Aβ 4-40; assay: N3pE sandwich ELISA (4G8 capture, 6-1-6 detection), peptide at 100 pg/ml
Aβ 1-42 [16] = assay: as above
Aβ pE11-40 [17] = biological target: T13, Aβ pE11-40; assay: as above
Aβ 4-40 [18] = biological target: T12, Aβ 4-40; assay: N3pE sandwich ELISA (4G8 capture, 6-1-6 detection), peptide at 200 pg/ml
Aβ 1-42 [19] = assay: as above
Aβ pE11-40 [20] = biological target: T13, Aβ pE11-40; assay: as above
Aβ 4-40 [21] = biological target: T12, Aβ 4-40; assay: N3pE sandwich ELISA (4G8 capture, 6-1-6 detection), peptide at 400 pg/ml
Aβ 1-42 [22] = assay: as above
Aβ pE11-40 [23] = biological target: T13, Aβ pE11-40; assay: as above
Aβ 4-40 [24] = biological target: T12, Aβ 4-40; assay: N3pE sandwich ELISA (4G8 capture, 6-1-6 detection), peptide at 800 pg/ml
Aβ 1-42 [25] = assay: as above
Aβ pE11-40 [26] = biological target: T13, Aβ pE11-40; assay: as above
Aβ 4-40 [27] = biological target: T12, Aβ 4-40; assay: N3pE sandwich ELISA (4G8 capture, 6-1-6 detection), peptide at 12.5 pg/ml
Aβ 1-42 [28] = assay: as above
Aβ pE11-40 [29] = biological target: T13, Aβ pE11-40; assay: as above
Aβ N3pE-40 peptide [30] = biological target: T5, Aβ N3pE-40 peptide; assay: SPR Biacore 3000, AβpE3-40 on CM5 chip, antibody 1-100 nM, bivalent analyte model
Aβ N3pE-40 peptide [31] = biological target: T5, Aβ N3pE-40 peptide; assay: SPR Biacore 3000, AβpE3-40 on CM5 chip, bivalent analyte model

B1: Aβ 5-5-6 (monoclonal antibody of hybridoma cell line 5-5-6, DSM ACC 2923) (antibody, V domains shown)
VH: EVQLQQSGPELVKPGASMKISCKASGYSFTGYTMNWVKQSHGKNLEWIGLINPYSGVTRYNQKFKGKATLIVDKSSSTAYMELLSLTSEDSAVYYCTREAKREWDETYWGQGTLVTVSA
VL: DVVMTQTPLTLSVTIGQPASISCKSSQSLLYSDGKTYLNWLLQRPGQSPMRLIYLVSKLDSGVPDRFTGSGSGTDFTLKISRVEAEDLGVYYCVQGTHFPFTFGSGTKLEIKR
notes: Mouse hybridoma IgG; The entries as printed begin with a leader and end with the first residues of the constant region; Heavy chain amplified with primer MHCG1, light chain with MKC; Tested as hybridoma culture supernatant; also called clone 5-5-6; antibody 5-5-6
[1]
  binding result: binds
[2]
  binding result: binds
[3]
  binding result: binds
[4]
  signal in ELISA (OD): 1.65 OD 405 nm
isoDAE-BSA
  signal in ELISA (OD): 0.015 OD 405 nm
N3E-BSA
  signal in ELISA (OD): 0.126 OD 405 nm
N11E-BSA
  signal in ELISA (OD): 0.004 OD 405 nm
N11pE-BSA
  signal in ELISA (OD): 0.006 OD 405 nm
Aβ N3pE-40 peptide [5]
  binding result: binds

B2: Aβ 6-1-6 (monoclonal antibody of hybridoma cell line 6-1-6, DSM ACC 2924) (antibody, V domains shown)
VH: B1 VH with S55N
VL: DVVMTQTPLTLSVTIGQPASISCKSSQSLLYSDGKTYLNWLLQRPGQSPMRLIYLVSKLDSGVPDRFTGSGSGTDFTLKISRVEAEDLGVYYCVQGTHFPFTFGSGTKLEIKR
notes: Mouse hybridoma IgG; The entries as printed begin with a leader and end with the first residues of the constant region; Heavy chain amplified with primer MHCG1, light chain with MKC; also called clone 6-1-6; N3pE antibody clone 6-1-6
Aβ N3pE-40 peptide [6]
  fold sensitivity against clone 12-1: 125 fold
[1]
  binding result: binds
[2]
  binding result: binds
[3]
  binding result: binds
Aβ N3pE-40 peptide [7]
  association, fold of clone 12-1: ~5 fold
[4]
  signal in ELISA (OD): 1.38 OD 405 nm
isoDAE-BSA
  signal in ELISA (OD): 0.013 OD 405 nm
N3E-BSA
  signal in ELISA (OD): 0.125 OD 405 nm
N11E-BSA
  signal in ELISA (OD): 0.007 OD 405 nm
N11pE-BSA
  signal in ELISA (OD): 0.014 OD 405 nm
MCP-1
  % cross reactivity (against AβpE3-40): < 1%
MCP-2
  % cross reactivity (against AβpE3-40): < 1%
Big Gastrin
  % cross reactivity (against AβpE3-40): < 1%
Gonadoliberin
  % cross reactivity (against AβpE3-40): < 1%
Neurotensin
  % cross reactivity (against AβpE3-40): < 1%
Orexin A
  % cross reactivity (against AβpE3-40): < 1%
Collagen 1
  % cross reactivity (against AβpE3-40): < 1%
Aβ N3pE-40 peptide [8]
  signal-to-noise ratio at the LOQ: 1.3
Aβ 4-40 [9]
  absorbance (450 nm corrected by 540 nm): 0.044 absorbance
Aβ 1-42 [10]
  absorbance (450 nm corrected by 540 nm): 0.048 absorbance
Aβ pE11-40 [11]
  absorbance (450 nm corrected by 540 nm): 0.048 absorbance
Aβ 4-40 [12]
  absorbance (450 nm corrected by 540 nm): 0.044 absorbance
Aβ 1-42 [13]
  absorbance (450 nm corrected by 540 nm): 0.05 absorbance
Aβ pE11-40 [14]
  absorbance (450 nm corrected by 540 nm): 0.045 absorbance
Aβ 4-40 [15]
  absorbance (450 nm corrected by 540 nm): 0.045 absorbance
Aβ 1-42 [16]
  absorbance (450 nm corrected by 540 nm): 0.047 absorbance
Aβ pE11-40 [17]
  absorbance (450 nm corrected by 540 nm): 0.048 absorbance
Aβ 4-40 [18]
  absorbance (450 nm corrected by 540 nm): 0.046 absorbance
Aβ 1-42 [19]
  absorbance (450 nm corrected by 540 nm): 0.048 absorbance
Aβ pE11-40 [20]
  absorbance (450 nm corrected by 540 nm): 0.048 absorbance
Aβ 4-40 [21]
  absorbance (450 nm corrected by 540 nm): 0.044 absorbance
Aβ 1-42 [22]
  absorbance (450 nm corrected by 540 nm): 0.048 absorbance
Aβ pE11-40 [23]
  absorbance (450 nm corrected by 540 nm): 0.044 absorbance
Aβ 4-40 [24]
  absorbance (450 nm corrected by 540 nm): 0.055 absorbance
Aβ 1-42 [25]
  absorbance (450 nm corrected by 540 nm): 0.053 absorbance
Aβ pE11-40 [26]
  absorbance (450 nm corrected by 540 nm): 0.047 absorbance
Aβ 4-40 [27]
  absorbance (450 nm corrected by 540 nm): 0.04 absorbance
Aβ 1-42 [28]
  absorbance (450 nm corrected by 540 nm): 0.043 absorbance
Aβ pE11-40 [29]
  absorbance (450 nm corrected by 540 nm): 0.046 absorbance
Aβ N3pE-40 peptide [30]
  Kd: 1.57 nM
  koff: 0.000263 s⁻¹
  kon: 167000 M⁻¹ s⁻¹

B3: Aβ 17-4-3 (monoclonal antibody of hybridoma cell line 17-4-3, DSM ACC 2925) (antibody, V domains shown)
VH: EVKLVESGGGLVQPGGSRKLSCAASGFTFSDYGMAWVRQAPGKGPEWVAFISNLAYSIYYADTVTGRFTISRENAKNTLYLEMSSLRSEDTAMYYCARYDYDNILDYVMDYWGQGTSVTVSS
VL: DVVMTQTPLSLPVSLGDQASISCRSSQSLVHSDGNTYLHWYLQKPGQSPKLLIYKVSNRFSGVPDRFSGSGSGTDFTLKISRVEAEDLGVYFCSQSTHVPPTFGGGTKLEIKR
notes: Mouse hybridoma IgG; The entries as printed begin with a leader and end with the first residues of the constant region; Heavy chain amplified with primer MHCG2b, light chain with MKC; Tested as hybridoma culture supernatant; also called clone 17-4-3; antibody 17-4-3
[1]
  binding result: binds
[2]
  binding result: binds
[3]
  binding result: binds
[4]
  signal in ELISA (OD): 1.92 OD 405 nm
isoDAE-BSA
  signal in ELISA (OD): 0.007 OD 405 nm
N3E-BSA
  signal in ELISA (OD): 0.32 OD 405 nm
N11E-BSA
  signal in ELISA (OD): 0.003 OD 405 nm
N11pE-BSA
  signal in ELISA (OD): 0.004 OD 405 nm
Aβ N3pE-40 peptide [5]
  binding result: binds

B4: Aβ 24-2-3 (monoclonal antibody of hybridoma cell line 24-2-3, DSM ACC 2926) (antibody, V domains shown)
VH: QVQLQQSGAELVRPGSSVKISCKASGYIFNNYWINWVKQRPGQGLEWIGQIYPGDGDTNYNGKFKGKATLTADKSSSTAYMQLSSLTSEDSAVYFCAREGYIVYWGQGTLVTVSA
VL: not shown
notes: Mouse hybridoma IgG; The entries as printed begin with a leader and end with the first residues of the constant region; Heavy chain amplified with primer MHCG2b, light chain with MKC; Tested as supernatant and as purified antibody; also called clone 24-2-3; N3pE antibody clone 24-2-3
[1]
  binding result: binds
[2]
  binding result: binds
[3]
  binding result: binds
[4]
  signal in ELISA (OD): 1.77 OD 405 nm
isoDAE-BSA
  signal in ELISA (OD): 0.014 OD 405 nm
N3E-BSA
  signal in ELISA (OD): 0.218 OD 405 nm
N11pE-BSA
  signal in ELISA (OD): 0.002 OD 405 nm
Aβ N3pE-40 peptide [31]
  Kd: 101 nM
MCP-1
  % cross reactivity (against AβpE3-40): < 1%
MCP-2
  % cross reactivity (against AβpE3-40): < 1%
Big Gastrin
  % cross reactivity (against AβpE3-40): < 1%
Gonadoliberin
  % cross reactivity (against AβpE3-40): < 1%
Neurotensin
  % cross reactivity (against AβpE3-40): < 1%
Orexin A
  % cross reactivity (against AβpE3-40): < 1%
